Read-outs that look alike come from different tables or passages of the source.
Columns and labels:
[1] = target: T1, Hpy188I restriction endonuclease (native Met) (UniProt Q9KJ88 1-170); assay: co-crystallization
T1 sequence: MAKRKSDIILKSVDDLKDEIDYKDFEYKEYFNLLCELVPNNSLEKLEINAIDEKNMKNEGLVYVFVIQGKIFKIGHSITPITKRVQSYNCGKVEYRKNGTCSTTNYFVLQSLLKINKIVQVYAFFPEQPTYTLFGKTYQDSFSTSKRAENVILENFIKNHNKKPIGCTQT

[2] = target: T2, Hpy188I restriction endonuclease (selenomethionine variant) (UniProt Q9KJ88 1-170); assay: X-ray crystallography
T2 sequence: T1 sequence

[3] = target: T2, Hpy188I restriction endonuclease …; assay: X-ray crystallography; remark: listed apart in the source

B1: 9-mer target oligoduplex (uncleaved) (dsDNA)
DNA 1: GATCTGAAC
DNA 2: GTTCAGATC
**Q.** What does the source list for B1?
**A.** binding result [1]: binds; binding result [2]: binds

B2: 9-mer target oligoduplex cleaved in crystal at TCN|GA (product) (dsDNA)
DNA 1: GATCT
DNA 2: GAAC
DNA 3: GTTCA
DNA 4: GATC
**Q.** Does B2 bind [3]?
**A.** binds

From PMC3045582
